# Test results taken from US12679878B2, “CRF2 receptor agonists and their use in therapy” (SANOFI, priority 2020, dated 2026).
# Starred links: 1 amine or outer side, 2 acyl side, 3 side chain; linkers in the order of their positions; H or OH if unused. Non-standard residues stand in square brackets, D forms with d. Groups on a side chain read outwards from the residue. No end group written: not given here. *: point of attachment. C18 diacid = O=C(O)CCCCCCCCCCCCCCCCC(=O)*; γGlu = O=C(O)[C@H](CCC(=O)[*:2])N[*:1]; AEEA = NCCOCCOCC(=O)O; Aib = CC(C)(N)C(=O)O
# B1: SEQ ID NO: 16 (peptide)
# peptide: IVLSLDVPIGLK([AEEA-AEEA-γGlu-C18 diacid])QKLLKQQRQRKERQQAEKNARILARV-NH2
# modifications: N-terminus assumed
# SMILES: CC[C@H](C)[C@H](N)C(=O)N[C@H](C(=O)N[C@@H](CC(C)C)C(=O)N[C@@H](CO)C(=O)N[C@@H](CC(C)C)C(=O)N[C@@H](CC(=O)O)C(=O)N[C@H](C(=O)N1CCC[C@H]1C(=O)N[C@H](C(=O)NCC(=O)N[C@@H](CC(C)C)C(=O)N[C@@H](CCCCNC(=O)COCCOCCNC(=O)COCCOCCNC(=O)CC[C@H](NC(=O)CCCCCCCCCCCCCCCCC(=O)O)C(=O)O)C(=O)N[C@@H](CCC(N)=O)C(=O)N[C@@H](CCCCN)C(=O)N[C@@H](CC(C)C)C(=O)N[C@@H](CC(C)C)C(=O)N[C@@H](CCCCN)C(=O)N[C@@H](CCC(N)=O)C(=O)N[C@@H](CCC(N)=O)C(=O)N[C@@H](CCCNC(=N)N)C(=O)N[C@@H](CCC(N)=O)C(=O)N[C@@H](CCCNC(=N)N)C(=O)N[C@@H](CCCCN)C(=O)N[C@@H](CCC(=O)O)C(=O)N[C@@H](CCCNC(=N)N)C(=O)N[C@@H](CCC(N)=O)C(=O)N[C@@H](CCC(N)=O)C(=O)N[C@@H](C)C(=O)N[C@@H](CCC(=O)O)C(=O)N[C@@H](CCCCN)C(=O)N[C@@H](CC(N)=O)C(=O)N[C@@H](C)C(=O)N[C@@H](CCCNC(=N)N)C(=O)N[C@H](C(=O)N[C@@H](CC(C)C)C(=O)N[C@@H](C)C(=O)N[C@@H](CCCNC(=N)N)C(=O)N[C@H](C(N)=O)C(C)C)[C@@H](C)CC)[C@@H](C)CC)C(C)C)C(C)C
# B2: SEQ ID NO: 151 (peptide)
# peptide: IVLSLD[dV]PIGLK([AEEA-AEEA-γGlu-C18 diacid])QILLKQERQKK[Aib]REQAEKNKRILERV-NH2
# modifications: N-terminus assumed
# SMILES: CC[C@H](C)[C@H](N)C(=O)N[C@H](C(=O)N[C@@H](CC(C)C)C(=O)N[C@@H](CO)C(=O)N[C@@H](CC(C)C)C(=O)N[C@@H](CC(=O)O)C(=O)N[C@@H](C(=O)N1CCC[C@H]1C(=O)N[C@H](C(=O)NCC(=O)N[C@@H](CC(C)C)C(=O)N[C@@H](CCCCNC(=O)COCCOCCNC(=O)COCCOCCNC(=O)CC[C@H](NC(=O)CCCCCCCCCCCCCCCCC(=O)O)C(=O)O)C(=O)N[C@@H](CCC(N)=O)C(=O)N[C@H](C(=O)N[C@@H](CC(C)C)C(=O)N[C@@H](CC(C)C)C(=O)N[C@@H](CCCCN)C(=O)N[C@@H](CCC(N)=O)C(=O)N[C@@H](CCC(=O)O)C(=O)N[C@@H](CCCNC(=N)N)C(=O)N[C@@H](CCC(N)=O)C(=O)N[C@@H](CCCCN)C(=O)N[C@@H](CCCCN)C(=O)NC(C)(C)C(=O)N[C@@H](CCCNC(=N)N)C(=O)N[C@@H](CCC(=O)O)C(=O)N[C@@H](CCC(N)=O)C(=O)N[C@@H](C)C(=O)N[C@@H](CCC(=O)O)C(=O)N[C@@H](CCCCN)C(=O)N[C@@H](CC(N)=O)C(=O)N[C@@H](CCCCN)C(=O)N[C@@H](CCCNC(=N)N)C(=O)N[C@H](C(=O)N[C@@H](CC(C)C)C(=O)N[C@@H](CCC(=O)O)C(=O)N[C@@H](CCCNC(=N)N)C(=O)N[C@H](C(N)=O)C(C)C)[C@@H](C)CC)[C@@H](C)CC)[C@@H](C)CC)C(C)C)C(C)C
# B3: SEQ ID NO: 148 (peptide)
# peptide: IVLSLDVPIGLK([AEEA-AEEA-γGlu-C18 diacid])QILLKQERQKK[Aib]REQAETNKRILERV-NH2
# modifications: N-terminus assumed
# SMILES: CC[C@H](C)[C@H](N)C(=O)N[C@H](C(=O)N[C@@H](CC(C)C)C(=O)N[C@@H](CO)C(=O)N[C@@H](CC(C)C)C(=O)N[C@@H](CC(=O)O)C(=O)N[C@H](C(=O)N1CCC[C@H]1C(=O)N[C@H](C(=O)NCC(=O)N[C@@H](CC(C)C)C(=O)N[C@@H](CCCCNC(=O)COCCOCCNC(=O)COCCOCCNC(=O)CC[C@H](NC(=O)CCCCCCCCCCCCCCCCC(=O)O)C(=O)O)C(=O)N[C@@H](CCC(N)=O)C(=O)N[C@H](C(=O)N[C@@H](CC(C)C)C(=O)N[C@@H](CC(C)C)C(=O)N[C@@H](CCCCN)C(=O)N[C@@H](CCC(N)=O)C(=O)N[C@@H](CCC(=O)O)C(=O)N[C@@H](CCCNC(=N)N)C(=O)N[C@@H](CCC(N)=O)C(=O)N[C@@H](CCCCN)C(=O)N[C@@H](CCCCN)C(=O)NC(C)(C)C(=O)N[C@@H](CCCNC(=N)N)C(=O)N[C@@H](CCC(=O)O)C(=O)N[C@@H](CCC(N)=O)C(=O)N[C@@H](C)C(=O)N[C@@H](CCC(=O)O)C(=O)N[C@H](C(=O)N[C@@H](CC(N)=O)C(=O)N[C@@H](CCCCN)C(=O)N[C@@H](CCCNC(=N)N)C(=O)N[C@H](C(=O)N[C@@H](CC(C)C)C(=O)N[C@@H](CCC(=O)O)C(=O)N[C@@H](CCCNC(=N)N)C(=O)N[C@H](C(N)=O)C(C)C)[C@@H](C)CC)[C@@H](C)O)[C@@H](C)CC)[C@@H](C)CC)C(C)C)C(C)C
# B4: SEQ ID NO: 149 (peptide)
# peptide: IVLSLD[dV]PIKLK([AEEA-AEEA-γGlu-C18 diacid])QILLKQERQKK[Aib]REQAETNKRILERV-NH2
# modifications: N-terminus assumed
# SMILES: CC[C@H](C)[C@H](N)C(=O)N[C@H](C(=O)N[C@@H](CC(C)C)C(=O)N[C@@H](CO)C(=O)N[C@@H](CC(C)C)C(=O)N[C@@H](CC(=O)O)C(=O)N[C@@H](C(=O)N1CCC[C@H]1C(=O)N[C@H](C(=O)N[C@@H](CCCCN)C(=O)N[C@@H](CC(C)C)C(=O)N[C@@H](CCCCNC(=O)COCCOCCNC(=O)COCCOCCNC(=O)CC[C@H](NC(=O)CCCCCCCCCCCCCCCCC(=O)O)C(=O)O)C(=O)N[C@@H](CCC(N)=O)C(=O)N[C@H](C(=O)N[C@@H](CC(C)C)C(=O)N[C@@H](CC(C)C)C(=O)N[C@@H](CCCCN)C(=O)N[C@@H](CCC(N)=O)C(=O)N[C@@H](CCC(=O)O)C(=O)N[C@@H](CCCNC(=N)N)C(=O)N[C@@H](CCC(N)=O)C(=O)N[C@@H](CCCCN)C(=O)N[C@@H](CCCCN)C(=O)NC(C)(C)C(=O)N[C@@H](CCCNC(=N)N)C(=O)N[C@@H](CCC(=O)O)C(=O)N[C@@H](CCC(N)=O)C(=O)N[C@@H](C)C(=O)N[C@@H](CCC(=O)O)C(=O)N[C@H](C(=O)N[C@@H](CC(N)=O)C(=O)N[C@@H](CCCCN)C(=O)N[C@@H](CCCNC(=N)N)C(=O)N[C@H](C(=O)N[C@@H](CC(C)C)C(=O)N[C@@H](CCC(=O)O)C(=O)N[C@@H](CCCNC(=N)N)C(=O)N[C@H](C(N)=O)C(C)C)[C@@H](C)CC)[C@@H](C)O)[C@@H](C)CC)[C@@H](C)CC)C(C)C)C(C)C
# B5: SEQ ID NO: 150 (peptide)
# peptide: IVLSLD[dV]PIGLK([AEEA-AEEA-γGlu-C18 diacid])QILLKQERQKK[Aib]RQQAETNKRILERV-NH2
# modifications: N-terminus assumed
# SMILES: CC[C@H](C)[C@H](N)C(=O)N[C@H](C(=O)N[C@@H](CC(C)C)C(=O)N[C@@H](CO)C(=O)N[C@@H](CC(C)C)C(=O)N[C@@H](CC(=O)O)C(=O)N[C@@H](C(=O)N1CCC[C@H]1C(=O)N[C@H](C(=O)NCC(=O)N[C@@H](CC(C)C)C(=O)N[C@@H](CCCCNC(=O)COCCOCCNC(=O)COCCOCCNC(=O)CC[C@H](NC(=O)CCCCCCCCCCCCCCCCC(=O)O)C(=O)O)C(=O)N[C@@H](CCC(N)=O)C(=O)N[C@H](C(=O)N[C@@H](CC(C)C)C(=O)N[C@@H](CC(C)C)C(=O)N[C@@H](CCCCN)C(=O)N[C@@H](CCC(N)=O)C(=O)N[C@@H](CCC(=O)O)C(=O)N[C@@H](CCCNC(=N)N)C(=O)N[C@@H](CCC(N)=O)C(=O)N[C@@H](CCCCN)C(=O)N[C@@H](CCCCN)C(=O)NC(C)(C)C(=O)N[C@@H](CCCNC(=N)N)C(=O)N[C@@H](CCC(N)=O)C(=O)N[C@@H](CCC(N)=O)C(=O)N[C@@H](C)C(=O)N[C@@H](CCC(=O)O)C(=O)N[C@H](C(=O)N[C@@H](CC(N)=O)C(=O)N[C@@H](CCCCN)C(=O)N[C@@H](CCCNC(=N)N)C(=O)N[C@H](C(=O)N[C@@H](CC(C)C)C(=O)N[C@@H](CCC(=O)O)C(=O)N[C@@H](CCCNC(=N)N)C(=O)N[C@H](C(N)=O)C(C)C)[C@@H](C)CC)[C@@H](C)O)[C@@H](C)CC)[C@@H](C)CC)C(C)C)C(C)C
# B6: SEQ ID NO: 147 (peptide)
# peptide: IVLSLD[dV]PIGLK([AEEA-AEEA-γGlu-C18 diacid])QILLKQERQKK[Aib]REQAETNKQILAQV-NH2
# modifications: N-terminus assumed
# SMILES: CC[C@H](C)[C@H](N)C(=O)N[C@H](C(=O)N[C@@H](CC(C)C)C(=O)N[C@@H](CO)C(=O)N[C@@H](CC(C)C)C(=O)N[C@@H](CC(=O)O)C(=O)N[C@@H](C(=O)N1CCC[C@H]1C(=O)N[C@H](C(=O)NCC(=O)N[C@@H](CC(C)C)C(=O)N[C@@H](CCCCNC(=O)COCCOCCNC(=O)COCCOCCNC(=O)CC[C@H](NC(=O)CCCCCCCCCCCCCCCCC(=O)O)C(=O)O)C(=O)N[C@@H](CCC(N)=O)C(=O)N[C@H](C(=O)N[C@@H](CC(C)C)C(=O)N[C@@H](CC(C)C)C(=O)N[C@@H](CCCCN)C(=O)N[C@@H](CCC(N)=O)C(=O)N[C@@H](CCC(=O)O)C(=O)N[C@@H](CCCNC(=N)N)C(=O)N[C@@H](CCC(N)=O)C(=O)N[C@@H](CCCCN)C(=O)N[C@@H](CCCCN)C(=O)NC(C)(C)C(=O)N[C@@H](CCCNC(=N)N)C(=O)N[C@@H](CCC(=O)O)C(=O)N[C@@H](CCC(N)=O)C(=O)N[C@@H](C)C(=O)N[C@@H](CCC(=O)O)C(=O)N[C@H](C(=O)N[C@@H](CC(N)=O)C(=O)N[C@@H](CCCCN)C(=O)N[C@@H](CCC(N)=O)C(=O)N[C@H](C(=O)N[C@@H](CC(C)C)C(=O)N[C@@H](C)C(=O)N[C@@H](CCC(N)=O)C(=O)N[C@H](C(N)=O)C(C)C)[C@@H](C)CC)[C@@H](C)O)[C@@H](C)CC)[C@@H](C)CC)C(C)C)C(C)C
# Target: human corticotropin-releasing factor 2α (CRF2 α receptor) (human), Q13324
# Assay: cell-based or functional assay
# Chain of human corticotropin-releasing factor 2α (CRF2 α receptor) (human), Q13324 (Q13324 20-411): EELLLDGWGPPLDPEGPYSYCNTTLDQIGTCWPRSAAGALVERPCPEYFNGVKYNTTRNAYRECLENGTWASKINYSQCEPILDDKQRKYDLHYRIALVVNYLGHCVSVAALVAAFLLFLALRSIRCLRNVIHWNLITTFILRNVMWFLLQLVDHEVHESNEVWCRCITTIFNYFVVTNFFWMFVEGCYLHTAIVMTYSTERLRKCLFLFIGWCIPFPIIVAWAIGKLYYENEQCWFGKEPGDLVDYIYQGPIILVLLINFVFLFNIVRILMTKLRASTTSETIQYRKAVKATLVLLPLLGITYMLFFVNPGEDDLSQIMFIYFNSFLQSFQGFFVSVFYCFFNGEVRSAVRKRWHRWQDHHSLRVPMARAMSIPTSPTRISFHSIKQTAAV
"EC50 [nM], 0% HSA","EC50 [nM], 0.1% HSA",Binder
0.3 nM,–,B1
0.08 nM,3.87 nM,B2
0.29 nM,14.3 nM,B3
0.06 nM,2.54 nM,B4
0.07 nM,3.99 nM,B5
0.18 nM,8.17 nM,B6
